# Key:
# [1] = biological target: human recombinant cytochrome b5 reductase (Cb5R) with a His6-tag (human); assay: other fluorescence titration; FAD fluorescence (ex 460 nm, em 520 nm) of 32 nM Cb5R with a His6-tag titrated with Aβ peptides; 20 mM phosphate, 0.1 mM DTPA, pH 7, 25 °C; one-site fit; apparent constant, in peptide monomers
# [2] = biological target: human recombinant cytochrome b5 reductase (Cb5R) with a His6-tag (human); assay: inhibition of enzyme activity (NADH-dependent Cb5 reductase activity); 0.11 μg/mL Cb5R with a His6-tag, 5 μM Cb5, 0.25 mM NADH, rising Aβ peptide; absorbance at 550 nm; 20 mM phosphate, 0.1 mM DTPA, pH 7, 25 °C; fit to one inhibitor binding site; in Aβ monomers
substance,measurement,setting,value
Aβ(25–35) (peptide),EC50,[1],75 nM
same,half-saturation constant in the fitted one-site equation,[1],99.3
same,Ki,[2],50 to 60 nM
